Columns and labels:
cof1_rat Cfl1 [1] = biological target: cof1_rat Cfl1 (UniProt P45592)
cofa_dicdi cofA = cofa_dicdi cofA (UniProt P0DJ26)
cof1_rat Cfl1 [2] = biological target: cof1_rat Cfl1 (UniProt P45592); remark: listed apart in the source

cof1_rat Cfl1, sequence (P45592 whole entry): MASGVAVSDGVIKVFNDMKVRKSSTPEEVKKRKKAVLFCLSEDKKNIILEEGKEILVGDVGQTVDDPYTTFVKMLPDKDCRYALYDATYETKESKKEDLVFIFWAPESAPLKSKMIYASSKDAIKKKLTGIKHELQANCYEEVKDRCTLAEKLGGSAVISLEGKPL
Src substrate cortactin (Mus musculus), Q60598 Y421F;Y466F;Y482F, sequence (Q60598 whole entry Y421F/Y466F/Y482F): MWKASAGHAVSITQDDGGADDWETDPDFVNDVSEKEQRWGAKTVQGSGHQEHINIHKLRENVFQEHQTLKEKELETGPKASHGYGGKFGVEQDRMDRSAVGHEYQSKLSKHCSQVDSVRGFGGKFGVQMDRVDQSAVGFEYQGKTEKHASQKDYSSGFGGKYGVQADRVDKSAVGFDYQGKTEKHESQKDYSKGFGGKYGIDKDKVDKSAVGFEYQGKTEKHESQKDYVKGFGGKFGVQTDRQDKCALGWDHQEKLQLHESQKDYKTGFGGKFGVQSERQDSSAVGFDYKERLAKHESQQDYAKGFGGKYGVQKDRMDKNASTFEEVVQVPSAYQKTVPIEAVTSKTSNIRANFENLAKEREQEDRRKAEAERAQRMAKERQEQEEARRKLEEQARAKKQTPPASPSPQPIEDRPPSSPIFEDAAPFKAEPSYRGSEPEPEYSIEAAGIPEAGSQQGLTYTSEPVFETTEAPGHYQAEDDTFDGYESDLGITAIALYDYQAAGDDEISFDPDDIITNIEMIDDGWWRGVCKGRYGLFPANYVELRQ
Src substrate cortactin (Mus musculus), Q60598 Y421E;Y466E;Y482E, sequence (Q60598 whole entry Y421E/Y466E/Y482E): as the sequence (Q60598 whole entry Y421F/Y466F/Y482F) above, with F421E, F466E, F482E counted along it
cofa_dicdi cofA, sequence (P0DJ26 whole entry): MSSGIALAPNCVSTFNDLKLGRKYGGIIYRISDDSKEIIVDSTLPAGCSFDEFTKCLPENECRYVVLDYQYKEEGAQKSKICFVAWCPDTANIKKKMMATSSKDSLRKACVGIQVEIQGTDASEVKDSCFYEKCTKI

effect of a mutation on the interaction (cof1_rat Cfl1 [1]) | effect of a mutation on the interaction (cofa_dicdi cofA) | effect of a mutation on the interaction (cof1_rat Cfl1 [2]) | Substance
decreasing interaction |  |  | Src substrate cortactin (Mus musculus), Q60598 Y421E;Y466E;Y482E
 | increasing interaction | increasing interaction | Src substrate cortactin (Mus musculus), Q60598 Y421F;Y466F;Y482F

— IntAct's records for PubMed 19704022
